From patent US20230125173A1 come the findings set out here.

For experiment [1], the target named is IL2Rβ and common γ chain on 32Dβ cells. As to the kind of experiment: cell-based or functional assay.
The target in experiment [2] is TGFβ1 (R&D systems) (UniProt P01137). As to the kind of experiment: cell-based or functional assay.
UniProt P01137, sequence (P01137 279-390 limits assumed): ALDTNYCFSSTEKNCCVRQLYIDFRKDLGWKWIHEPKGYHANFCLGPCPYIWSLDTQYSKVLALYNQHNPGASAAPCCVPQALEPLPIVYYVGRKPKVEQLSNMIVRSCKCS

For the substance “recombinant IL-15 (from UniProt P40933 49-162) (ligand)”, in experiment [1], the EC50, 32Dβ cell proliferation (WST1, absorbance at 450 nM) was 10.6 pM.

In experiment [2], TGFR-Fc (R&D Systems) (Fc fusion) had an IC50, inhibition of TGFβ1 (0.1nM stock) activity in HEK-Blue TGFβ reporter cells, QUANTI-Blue OD 620-655 nM of 461 pM.
